This is an account of results in PMC8603391 (European biophysics journal : EBJ, 2015).

As a reminder, the Kd is the concentration at which binding is half-saturated. A word on the koff: it is the first-order rate constant of dissociation. The kon is the second-order rate constant of association.

Assay [1] concerns the target T1, GST-My16Ank (uncleaved glutathione S-transferase fusion of the myosin 16 ankyrin domain) (Rattus norvegicus, UniProt Q9ERC1-1 1-402).
T1 sequence (looked up): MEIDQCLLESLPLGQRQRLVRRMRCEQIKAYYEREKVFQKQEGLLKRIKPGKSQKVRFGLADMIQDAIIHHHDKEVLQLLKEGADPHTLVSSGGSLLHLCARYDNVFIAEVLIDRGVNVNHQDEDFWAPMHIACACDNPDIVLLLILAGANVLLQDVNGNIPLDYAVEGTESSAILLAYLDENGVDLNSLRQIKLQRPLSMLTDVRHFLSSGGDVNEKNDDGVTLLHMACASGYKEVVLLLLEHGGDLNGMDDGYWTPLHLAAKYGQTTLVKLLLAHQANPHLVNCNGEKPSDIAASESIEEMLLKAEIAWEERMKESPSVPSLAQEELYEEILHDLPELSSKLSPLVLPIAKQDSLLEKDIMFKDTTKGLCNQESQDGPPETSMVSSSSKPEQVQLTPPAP
Briefly: SPR. A general note: In SPR one partner is held on a chip, and binding of the other changes the refractive index at the surface.

Assay [2] deals with T2, Myosin 16 ankyrin domain (My16Ank), GST tag cleaved (Rattus norvegicus, UniProt Q9ERC1-1 1-402).
T2 sequence (looked up): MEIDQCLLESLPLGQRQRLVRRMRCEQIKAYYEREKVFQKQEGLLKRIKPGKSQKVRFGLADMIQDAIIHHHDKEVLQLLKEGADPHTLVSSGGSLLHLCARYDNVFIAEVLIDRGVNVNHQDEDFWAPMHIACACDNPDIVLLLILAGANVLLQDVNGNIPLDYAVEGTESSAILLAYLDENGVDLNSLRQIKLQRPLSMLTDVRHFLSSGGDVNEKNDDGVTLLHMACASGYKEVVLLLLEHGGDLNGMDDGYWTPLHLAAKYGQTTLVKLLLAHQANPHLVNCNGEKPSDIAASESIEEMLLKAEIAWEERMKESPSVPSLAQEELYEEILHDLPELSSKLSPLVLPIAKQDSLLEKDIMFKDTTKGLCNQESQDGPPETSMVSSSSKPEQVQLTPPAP
Briefly: SPR.

B1: recombinant His-tagged PP1cδ (protein phosphatase-1 catalytic subunit, δ isoform) (enzyme, UniProt P62140 1-327, looked up)
chain: MADGELNVDSLITRLLEVRGCRPGKIVQMTEAEVRGLCIKSREIFLSQPILLELEAPLKICGDIHGQYTDLLRLFEYGGFPPEANYLFLGDYVDRGKQSLETICLLLAYKIKYPENFFLLRGNHECASINRIYGFYDECKRRFNIKLWKTFTDCFNCLPIAAIVDEKIFCCHGGLSPDLQSMEQIRRIMRPTDVPDTGLLCDLLWSDPDKDVQGWGENDRGVSFTFGADVVSKFLNRHDLDLICRAHQVVEDGYEFFAKRQLVTLFSAPNYCGEFDNAGGMMSVDETLMCSFQILKPSEKKAKYQYGGLNSGRPVTPPRTANPPKKR
In assay [1], B1 returned a Ka of 3.04e+06 M⁻¹, a Kd of 329 nM, a koff of 0.000473 s⁻¹ and a kon of 1440 M⁻¹ s⁻¹. Moreover, in assay [2], the Ka is 1.65e+06 M⁻¹.
